According to PMC3336104 (Molecular Cell, 2012):

Target: Glmn, purified, His6-MBP removed (human, UniProt Q92990 1-594)
Assay: SEC

Sequence of Glmn, purified, His6-MBP removed (Q92990 whole entry): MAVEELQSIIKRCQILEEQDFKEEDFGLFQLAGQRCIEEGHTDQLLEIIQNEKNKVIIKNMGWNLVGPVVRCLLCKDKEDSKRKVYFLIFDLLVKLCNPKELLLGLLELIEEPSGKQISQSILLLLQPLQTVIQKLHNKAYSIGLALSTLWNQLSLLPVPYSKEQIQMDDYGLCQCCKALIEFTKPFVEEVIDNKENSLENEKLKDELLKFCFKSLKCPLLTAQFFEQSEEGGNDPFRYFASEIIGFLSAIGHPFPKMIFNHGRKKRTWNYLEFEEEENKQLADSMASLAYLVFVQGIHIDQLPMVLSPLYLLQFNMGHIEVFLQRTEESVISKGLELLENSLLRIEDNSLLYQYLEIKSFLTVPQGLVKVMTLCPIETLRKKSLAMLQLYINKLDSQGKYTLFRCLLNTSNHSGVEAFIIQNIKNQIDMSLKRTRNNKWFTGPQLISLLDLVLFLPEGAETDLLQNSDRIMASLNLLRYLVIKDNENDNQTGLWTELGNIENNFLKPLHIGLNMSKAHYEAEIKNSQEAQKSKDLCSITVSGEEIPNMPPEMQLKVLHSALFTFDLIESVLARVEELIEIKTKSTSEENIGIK

B1: Rbx1^RING, GST removed (domain or fragment)
chain: not shown
B1: binds.
